Measurements taken from publication PMC5780489, “Characterization of the multimeric structure of poly(A)-binding protein on a poly(A) tail” (Scientific Reports, 2018).

Molecular target: T1, PABPC1 RRM1/2/3/4 (residues 1-370) (human, UniProt P11940 1-370)
T1 construct: human PABPC1, residues 1-370 (RRM1 to RRM4), cloned into pET-42b(+); Used in complex with long poly(A) or A24 RNA; Purification details are in the Supplementary methods; source: E. coli, purified (Glutathione-Sepharose 4B, GST cleaved off, cation exchange, gel filtration)
T1 sequence (P11940 1-370): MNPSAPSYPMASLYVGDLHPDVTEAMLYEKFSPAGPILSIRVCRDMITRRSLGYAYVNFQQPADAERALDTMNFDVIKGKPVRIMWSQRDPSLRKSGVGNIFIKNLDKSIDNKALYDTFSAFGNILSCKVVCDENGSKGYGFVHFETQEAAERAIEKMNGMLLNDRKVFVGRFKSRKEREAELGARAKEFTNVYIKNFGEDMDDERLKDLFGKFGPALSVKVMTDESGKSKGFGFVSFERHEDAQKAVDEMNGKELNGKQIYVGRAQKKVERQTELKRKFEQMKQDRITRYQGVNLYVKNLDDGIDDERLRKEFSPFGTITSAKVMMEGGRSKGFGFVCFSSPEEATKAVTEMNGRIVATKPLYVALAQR
Assay: NMR titration; 1H-15N HSQC of 15N-labelled Lt2 (100 μM) with RRM1/2/3/4-A24 at 50, 100 and 150 μM; chemical shift changes of W437 side chain, W437 and T438 fitted to a 1:1 model; not saturated; 303 K, 26 mM NaH2PO4 pH 6.0, 100 mM NaCl
Settings: both partners purified

B1: PABPC1 linker fragment Lt2 (residues 421-470) (peptide, UniProt P11940 421-470, looked up)
chain: AYYPPSQIAQLRPSPRWTAQGARPHPFQNMPGAIRPAAPRPPFSTMRPAS
notes: human PABPC1, residues 421-470, cloned into pGEX-6p-1; Uniformly 15N-labelled for NMR
- Kd: 10 to 54 µM
